To fix the notation:
T1: Tumor Suppressor (TSG101) 240-391 (human, UniProt Q99816 240-390)
T1 construct: range 240-391; bait (Gal4 DBD fusion); also called TSG101 240-390
T1 sequence (looked up): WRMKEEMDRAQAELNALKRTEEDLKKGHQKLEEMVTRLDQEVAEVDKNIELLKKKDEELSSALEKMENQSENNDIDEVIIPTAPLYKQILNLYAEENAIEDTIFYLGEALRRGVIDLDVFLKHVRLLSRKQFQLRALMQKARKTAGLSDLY

T2: Tumor Suppressor (TSG101) 12-326 (human, UniProt Q99816 12-326)
T2 construct: bait (Gal4 DBD fusion)
T2 sequence (looked up): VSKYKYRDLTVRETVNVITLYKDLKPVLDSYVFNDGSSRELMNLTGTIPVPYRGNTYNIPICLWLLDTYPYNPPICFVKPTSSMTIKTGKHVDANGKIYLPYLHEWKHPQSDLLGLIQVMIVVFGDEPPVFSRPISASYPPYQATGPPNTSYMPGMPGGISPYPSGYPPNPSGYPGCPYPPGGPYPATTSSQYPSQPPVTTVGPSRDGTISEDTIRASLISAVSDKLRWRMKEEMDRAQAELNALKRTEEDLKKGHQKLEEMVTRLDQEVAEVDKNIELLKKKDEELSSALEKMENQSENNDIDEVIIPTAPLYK

T3: Tumor Suppressor (TSG101) 231-391 (human, UniProt Q99816 231-390)
T3 construct: bait (Gal4 DBD fusion)
T3 sequence (looked up): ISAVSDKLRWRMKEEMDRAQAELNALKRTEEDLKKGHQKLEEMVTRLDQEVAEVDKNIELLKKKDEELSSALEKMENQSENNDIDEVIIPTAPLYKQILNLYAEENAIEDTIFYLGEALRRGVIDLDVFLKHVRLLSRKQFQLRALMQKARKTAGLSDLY

B1: Intersection 1 437-584 (other, human, UniProt Q15811 437-584, looked up)
chain: AKRELERQRQLEWERNRRQELLNQRNKEQEDIVVLKAKKKTLEFELEALNDKKHQLEGKLQDIRCRLTTQRQEIESTNKSRELRIAEITHLQQQLQESQQMLGRLIPEKQILNDQLKQVQQNSLHRDSLVTLKRALEAKELARQHLRD
notes: prey (Gal4 AD-HA fusion); also called Intersectin 1; ITSN1
B2: Keratin 5 349-475 (other, human, UniProt P13647 349-475, looked up)
chain: IANRSRTEAESWYQTKYEELQQTAGRHGDDLRNTKHEISEMNRMIQRLRAEIDNVKKQCANLQNAIADAEQRGELALKDARNKLAELEEALQKAKQDMARLLREYQELMNTKLALDVEIATYRKLLE
notes: prey (Gal4 AD-HA fusion)
B3: GTPase-activiating protein 1 1404-1553 (other, human, UniProt P46940 1404-1553, looked up)
chain: LTEILETPATSEQEAEHQRAMQRRAIRDAKTPDKMKKSKSVKEDSNLTLQEKKEKIQTGLKKLTELGTVDPKNKYQELINDIARDIRNQRRYRQRRKAELVKLQQTYAALNSKATFYGEQVDYYKSYIKTCLDNLASKGKVSKKPREMKG
notes: prey (Gal4 AD-HA fusion); also called IQGAP1; IQGAP
B4: GTPase-activiating protein 1 1439-1567 (other, human, UniProt P46940 1439-1567, looked up)
chain: KKSKSVKEDSNLTLQEKKEKIQTGLKKLTELGTVDPKNKYQELINDIARDIRNQRRYRQRRKAELVKLQQTYAALNSKATFYGEQVDYYKSYIKTCLDNLASKGKVSKKPREMKGKKSKKISLKYTAAR
notes: as for B3
B5: Keratin 5 325-446 (other, human, UniProt P13647 325-446, looked up)
chain: LSMDNNRNLDLDSIIAEVKAQYEEIANRSRTEAESWYQTKYEELQQTAGRHGDDLRNTKHEISEMNRMIQRLRAEIDNVKKQCANLQNAIADAEQRGELALKDARNKLAELEEALQKAKQDM
notes: prey (Gal4 AD-HA fusion)
B6: GTPase-activiating protein 1 1463-1568 (other, human, UniProt P46940 1463-1568, looked up)
chain: LKKLTELGTVDPKNKYQELINDIARDIRNQRRYRQRRKAELVKLQQTYAALNSKATFYGEQVDYYKSYIKTCLDNLASKGKVSKKPREMKGKKSKKISLKYTAARL
notes: as for B3
B7: Keratin 5 335-473 (other, human, UniProt P13647 335-473, looked up)
chain: LDSIIAEVKAQYEEIANRSRTEAESWYQTKYEELQQTAGRHGDDLRNTKHEISEMNRMIQRLRAEIDNVKKQCANLQNAIADAEQRGELALKDARNKLAELEEALQKAKQDMARLLREYQELMNTKLALDVEIATYRKL
notes: prey (Gal4 AD-HA fusion)
B8: Keratin 8 293-394 (other, human, UniProt P05787 293-394, looked up)
chain: AGKHGDDLRRTKTEISEMNRNISRLQAEIEGLKGQRASLEAAIADAEQRGELAIKDANAKLSELEAALQRAKQDMARQLREYQELMNVKLALDIEIATYRKL
notes: prey (Gal4 AD-HA fusion)
B9: Mitotic spindle coiled-coil related protein 942-1021 (other, human, UniProt Q96R06 942-1021, looked up)
chain: LGSDKSAFTRVASMVSLQPAETPGMEESLAEMSIMTTELQSLCSLLQESKEEAIRTLQRKICELQARLQAQEEQHQEVQK
notes: prey (Gal4 AD-HA fusion)
B10: GTPase-activiating protein 1 1406-1547 (other, human, UniProt P46940 1406-1547, looked up)
chain: EILETPATSEQEAEHQRAMQRRAIRDAKTPDKMKKSKSVKEDSNLTLQEKKEKIQTGLKKLTELGTVDPKNKYQELINDIARDIRNQRRYRQRRKAELVKLQQTYAALNSKATFYGEQVDYYKSYIKTCLDNLASKGKVSKK
notes: as for B3
B11: Intersection 1 436-547 (other, human, UniProt Q15811 436-547, looked up)
chain: AAKRELERQRQLEWERNRRQELLNQRNKEQEDIVVLKAKKKTLEFELEALNDKKHQLEGKLQDIRCRLTTQRQEIESTNKSRELRIAEITHLQQQLQESQQMLGRLIPEKQI
notes: as for B1
B12: Keratin 5 384-475 (other, human, UniProt P13647 384-475, looked up)
chain: HEISEMNRMIQRLRAEIDNVKKQCANLQNAIADAEQRGELALKDARNKLAELEEALQKAKQDMARLLREYQELMNTKLALDVEIATYRKLLE
notes: prey (Gal4 AD-HA fusion)
B13: Keratin 5 347-485 (other, human, UniProt P13647 347-485, looked up)
chain: EEIANRSRTEAESWYQTKYEELQQTAGRHGDDLRNTKHEISEMNRMIQRLRAEIDNVKKQCANLQNAIADAEQRGELALKDARNKLAELEEALQKAKQDMARLLREYQELMNTKLALDVEIATYRKLLEGEECRLSGEG
notes: prey (Gal4 AD-HA fusion)
B14: Keratin 5 379-452 (other, human, UniProt P13647 379-452, looked up)
chain: LRNTKHEISEMNRMIQRLRAEIDNVKKQCANLQNAIADAEQRGELALKDARNKLAELEEALQKAKQDMARLLRE
notes: prey (Gal4 AD-HA fusion)
B15: GTPase-activiating protein 1 1439-1565 (other, human, UniProt P46940 1439-1565, looked up)
chain: KKSKSVKEDSNLTLQEKKEKIQTGLKKLTELGTVDPKNKYQELINDIARDIRNQRRYRQRRKAELVKLQQTYAALNSKATFYGEQVDYYKSYIKTCLDNLASKGKVSKKPREMKGKKSKKISLKYTA
notes: as for B3
B16: novel protein PN9667 268-422 (other)
chain: KAKEKEVEKIEQNGLALIQNKKEDVSSIVMSTLRELGQTWANLDHMVGQLKILLKSVLDQWSSHKVAFDKINSYLMEARYSLSRFRLLTGSLEAVQVQVDNLQNLQDDLEKQERSLQKFGSITNQLLKECHPPVTETLTNTLKEVNMRWNNLLEE
notes: prey (Gal4 AD-HA fusion)
B17: Accessory proteins BAP31/BAP29 (BAP31) 184-246 (other, human, UniProt P51572 184-246, looked up)
chain: LKADLQKLKDELASTKQKLEKAENQVLAMRKQSEGLTKEYDRLLEEHAKLQAAVDGPMDKKEE
notes: prey (Gal4 AD-HA fusion)
B18: Kinesin Family Member 5A (KIF5A) 564-725 (other, human, UniProt Q12840 564-725, looked up)
chain: IVGNGEIKLPVEISGAIEEEFTVARLYISKIKSEVKSVVKRCRQLENLQVECHRKMEVTGRELSSCQLLISQHEAKIRSLTEYMQSVELKKRHLEESYDSLSDELAKLQAQETVHEVALKDKEPDTQDADEVKKALELQMESHREAHHRQLARLRDEINEKQ
notes: prey (Gal4 AD-HA fusion)
B19: Golgi autoantigen (Golgin-84) 198-497 (other, human, UniProt Q8TBA6 198-497, looked up)
chain: SKENVSSNAACPDHTPTPNDDGKSHELSNLRLENQLLRNEVQSLNQEMASLLQRSKETQEELNKARARVEKWNADHSKSDRMTRGLRAQVDDLTEAVAAKDSQLAVLKVRLQEADQLLSTRTEALEALQSEKSRIMQDQSEGNSLQNQALQTFQERLHEADATLKREQESYKQMQSEFAARLNKVEMERQNLAEAITLAERKYSDEKKRVDELQQQVKLYKLNLESSKQELIDYKQKATRILQSKEKLINSLKEGSGFEGLDSSTASSMELEELRHEKEMQREEIQKLMGQIHQLRSELQ
notes: prey (Gal4 AD-HA fusion)
B20: Golgi autoantigen (Golgin-84) 198-501 (other, human, UniProt Q8TBA6 198-501, looked up)
chain: SKENVSSNAACPDHTPTPNDDGKSHELSNLRLENQLLRNEVQSLNQEMASLLQRSKETQEELNKARARVEKWNADHSKSDRMTRGLRAQVDDLTEAVAAKDSQLAVLKVRLQEADQLLSTRTEALEALQSEKSRIMQDQSEGNSLQNQALQTFQERLHEADATLKREQESYKQMQSEFAARLNKVEMERQNLAEAITLAERKYSDEKKRVDELQQQVKLYKLNLESSKQELIDYKQKATRILQSKEKLINSLKEGSGFEGLDSSTASSMELEELRHEKEMQREEIQKLMGQIHQLRSELQDMEA
notes: prey (Gal4 AD-HA fusion)
B21: Tropomyosin TM30pl (TPM4) 91-142 (other, human, UniProt P67936 91-142, looked up)
chain: MKVIENRAMKDEEKMEIQEMQLKEAKHIAEEADRKYEEVARKLVILEGELER
notes: prey (Gal4 AD-HA fusion)
B22: Zink finger protein 231 (ZNF231) 2308-2438 (other, human, UniProt Q9UPA5 2308-2438, looked up)
chain: EEPLPTTTPAAIKEAAGAPAPAPLAGQKPPADAAPGGGSGALSRPGFEKEEASQEERQRKQQEQLLQLERERVELEKLRQLRLQEELERERVELQRHREEEQLLVQRELQELQTIKHHVLQQQQEERQAQF
notes: prey (Gal4 AD-HA fusion)
B23: Chromosome-associated polypeptide HCAP (HCAP) 208-300 (other, human, UniProt Q9UQE7 208-300, looked up)
chain: EELAQYQKWDKMRRALEYTIYNQELNETRAKLDELSAKRETSGEKSRQLRDAQQDARDKMEDIERQVRELKTKISAMKEEKEQLSAERQEQIK
notes: prey (Gal4 AD-HA fusion)
B24: Tropomyosin TM30pl (TPM4) 79-142 (other, human, UniProt P67936 79-142, looked up)
chain: EAEKAADESERGMKVIENRAMKDEEKMEIQEMQLKEAKHIAEEADRKYEEVARKLVILEGELER
notes: prey (Gal4 AD-HA fusion)
B25: Rho-associated (ROCK1) 462-617 (enzyme, human, UniProt Q13464 462-617, looked up)
chain: KIMKELDEEGNQRRNLESTVSQIEKEKMLLQHRINEYQRKAEQENEKRRNVENEVSTLKDQLEDLKKVSQNSQLANEKLSQLQKQLEEANDLLRTESDTAVRLRKSHTEMSKSISQLESLNRELQERNRILENSKSQTDKDYYQLQAILEAERRDR
notes: prey (Gal4 AD-HA fusion); also called ROK; p160
B26: GrpE-Like protein cochaperone (PN19062) 40-89 (other)
chain: LEEDMGQSEQKADPPATEKTLLEEKVKLEEQLKETVEKYKRALADTENLR
notes: prey (Gal4 AD-HA fusion); also called PN19062/HMGE; GRPEL1

The target in the first assay is T1, Tumor Suppressor (TSG101) 240-391. Description: yeast two-hybrid.
As for B1, the binding result is given as “binds”.
For B2, the binding result was “binds”.
In the case of B3, the binding result is given as “binds”.
B4: the binding result was “binds”.
For the molecule B5, the binding result is reported as “binds”.
The same measure, in the same setting: then B6, with “binds”; and B7, with “binds”.
On the same count and under the same terms, then B8, with “binds”; and B9, with “binds”.
On the same count and under the same terms, then B10, with “binds”; and B11, with “binds”.
For the molecule B12, the binding result is on record as “binds”.
The same measure, in the same setting: next, B13: “binds”; B14: “binds”; B15: “binds”.

The next assay has as its target T2, Tumor Suppressor (TSG101) 12-326. Put plainly: yeast two-hybrid.
Turning to B16, the binding result is listed as “binds”.
On to B17, for which the binding result is “binds”.
As to B18, the binding result was “binds”.
On the same count and under the same terms, next, B19: “binds”; B20: “binds”.

Another assay has as its target T3, Tumor Suppressor (TSG101) 231-391. Put plainly: yeast two-hybrid.
For the molecule B21, the binding result is “binds”.
The same measure, in the same setting: then B22, with “binds”; and B23, with “binds”; and B24, with “binds”.
The same measure, in the same setting: next, B25: “binds”.
Still for that read-out and setting: next, B26: “binds”.

The record behind these values is US20050222029A1 (MYRIAD GENETICS, published 2005).
